Test results taken from PMC7545189, “Structural characterization of the ICOS/ICOS-L immune complex reveals high molecular mimicry by therapeutic antibodies” (Nature Communications, 2020).
Residue numbers refer to the chain shown, from its start. Numbers in names are those of the source.

T1: human ICOS-L ectodomain (residues 19-248), untagged monomer (human, UniProt O75144 19-248)
T1 construct: Residues of the TEV site probably remain at the C-terminus after cleavage; also called ICOS-L ectodomain monomer; CD275; source: HEK 293F, transiently transfected, purified (HisTrap Ni-NTA, TEV digestion, second Ni-NTA, Superdex 200); not shown: Venus (monomeric variant), C-terminal, cleaved; His6, C-terminal, cleaved
T1 sequence (looked up): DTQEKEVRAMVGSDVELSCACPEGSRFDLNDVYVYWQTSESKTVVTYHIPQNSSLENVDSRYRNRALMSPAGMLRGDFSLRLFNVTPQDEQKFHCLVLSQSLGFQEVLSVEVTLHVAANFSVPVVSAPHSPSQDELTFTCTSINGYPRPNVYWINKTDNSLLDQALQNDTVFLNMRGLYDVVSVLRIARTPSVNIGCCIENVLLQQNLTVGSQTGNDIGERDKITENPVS

T2: human ICOS-L ectodomain (residues 19-248), His-tagged, immobilised on Ni-NTA biosensors (human, UniProt O75144 19-248)
T2 construct: also called ICOS ligand; CD275; source: HEK 293F, transiently transfected, purified from the supernatant (HisTrap Ni-NTA); not shown: His6, C-terminal, kept
T2 sequence (looked up): T1 sequence (looked up)

T3: human ICOS-L ectodomain (residues 19-248), crystallised in complexes (human, UniProt O75144 19-248)
T3 construct: not shown: Venus (monomeric variant), C-terminal, cleaved; His6, C-terminal, cleaved
T3 sequence (looked up): T1 sequence (looked up)

T4: human ICOS ectodomain N110Q (N110 glycan knock-out mutant), analyte (human, UniProt Q9Y6W8 21-138, N110Q)
T4 sequence: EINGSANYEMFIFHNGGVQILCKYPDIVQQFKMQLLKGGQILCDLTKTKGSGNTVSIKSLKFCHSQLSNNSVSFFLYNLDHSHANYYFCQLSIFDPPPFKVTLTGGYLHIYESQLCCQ

T5: human ICOS ectodomain (residues 21-138), untagged, disulfide-linked homodimer (human, UniProt Q9Y6W8 21-138)
T5 chain: T4 sequence with Q90N

T6: human ICOS ectodomain N110Q, His-tagged, immobilised for STIM003 binding (human, UniProt Q9Y6W8 21-138, N110Q)
T6 sequence: T4 sequence

T7: human ICOS ectodomain (residues 21-138), His-tagged, immobilised on Ni-NTA biosensors (human, UniProt Q9Y6W8 21-138)
T7 chain: T4 sequence with Q90N

B1: human ICOS ectodomain (residues 21-138), His-tagged, immobilised on Ni-NTA biosensors (receptor, UniProt Q9Y6W8 21-138, looked up)
chain: T4 sequence with Q90N
notes: human ICOS ectodomain, UniProtKB Q9Y6W8, residues 21-138, followed by a TEV cleavage site; The His6 tag of the vector lies C-terminal of TEV site and Venus, so the His-tagged form used for loading is probably the undigested ICOS-TEV-Venus-His6 fusion; also called inducible T-cell co-stimulator; CD278; source: HEK 293F, transiently transfected, purified from the supernatant (HisTrap Ni-NTA); not …
B2: human ICOS ectodomain (residues 21-138), untagged, disulfide-linked homodimer (receptor, UniProt Q9Y6W8 21-138, looked up)
chain: T4 sequence with Q90N
notes: human ICOS ectodomain, UniProtKB Q9Y6W8, residues 21-138; Residues of the TEV site probably remain at the C-terminus after cleavage; also called ICOS WT; ICOS disulfide-linked homodimers; source: HEK 293F, transiently transfected, purified (HisTrap Ni-NTA, TEV digestion, second Ni-NTA, Superdex 200); not shown: Venus (monomeric variant), C-terminal, cleaved; His6, C-terminal, cleaved
B3: human ICOS ectodomain N110Q (N110 glycan knock-out mutant), analyte (receptor, UniProt Q9Y6W8 21-138, looked up)
chain: T4 sequence
notes: human ICOS ectodomain, UniProtKB Q9Y6W8, N110Q removes the N-linked glycosylation site; limits are those of the ectodomain construct of the methods; also called ICOS N110Q; ICOS N110 glycan knock-out mutant; source: HEK 293F, transiently transfected, purified (as the ICOS ectodomain); not shown: Venus (monomeric variant), C-terminal, cleaved; His6, C-terminal, cleaved
B4: human ICOS ectodomain (residues 21-129), crystallised with ICOS-L and VNAR (domain or fragment, UniProt Q9Y6W8 21-129, looked up)
chain: EINGSANYEMFIFHNGGVQILCKYPDIVQQFKMQLLKGGQILCDLTKTKGSGNTVSIKSLKFCHSQLSNNSVSFFLYNLDHSHANYYFCNLSIFDPPPFKVTLTGGYLH
modifications: N-linked glycan at N110 seen in the structure (two GlcNAc and three mannose residues)
notes: not shown: Venus (monomeric variant), C-terminal, cleaved; His6, C-terminal, cleaved
B5: human ICOS-L ectodomain (residues 19-248), His-tagged, immobilised on Ni-NTA biosensors (ligand)
chain: T1 sequence (looked up)
B6: prezalumab Fab (purified, for BLI) (Fab, V domains shown)
VH: EVQLVESGGGLVQPGGSLRLSCAASGFTFSSYWMSWVRQAPGKGLEWVAYIKQDGNEKYYVDSVKGRFTISRDNAKNSLYLQMNSLRAEDTAVYYCAREGILWFGDLPTFWGQGTLVTVSS
VL: DIQMTQSPSSLSASVGDRVTITCRASQGISNWLAWYQQKPEKAPKSLIYAASSLQSGVPSRFSGSGSGTDFTLTISSLQPEDFATYYCQQYDSYPRTFGQGTKVEIK
notes: Fab heavy chain of prezalumab; Fab light chain of prezalumab; Purified on KappaSelect; also called humanized monoclonal anti ICOS-L antibody; source: HEK 293F, transiently co-transfected LC and HC, purified (KappaSelect, MonoS, Superdex 200)
B7: prezalumab Fab (co-expressed with ICOS-L and VNAR, for the crystal structure) (Fab, V domains shown)
VH: B6 VH
VL: B6 VL
notes: as the heavy chain of m14; as the light chain of m14; source: HEK 293S (Gnt I-/-), co-transfected with ICOS-L and VNAR, complex purified
B8: STIM003 Fab (purified, for BLI) (Fab, V domains shown)
VH: EVQLVESGGGVVRPGGSLRLSCVASGVTFDDYGMSWVRQAPGKGLEWVSGINWNGGDTDYSDSVKGRFTISRDNAKNSLYLQMNSLRAEDTALYYCARDFYGSGSYYHVPFDYWGQGILVTVSS
VL: EIVLTQSPGTLSLSPGERATLSCRASQSVSRSYLAWYQQKRGQAPRLLIYGASSRATGIPDRFSGDGSGTDFTLSISRLEPEDFAVYYCHQYDMSPFTFGPGTKVDIK
notes: Fab heavy chain of STIM003; Fab light chain (kappa) of STIM003; Kappa light chain (KappaSelect purification); also called anti-ICOS monoclonal antibody; source: HEK 293F, transiently co-transfected LC and HC, purified (KappaSelect, MonoS, Superdex 200)
B9: STIM003 Fab (co-expressed with ICOS, for the crystal structure) (Fab, V domains shown)
VH: B8 VH
VL: B8 VL
notes: as the heavy chain of m12; as the light chain (kappa) of m12; source: HEK 293S (Gnt I-/-), co-transfected with ICOS C136A C137A N23Q, complex purified

Experiments:
[1] = biological target: T1, human ICOS-L ectodomain (residues …); assay: BLI; His-tagged ICOS on Ni-NTA biosensors (0.8 nm), untagged ICOS-L as analyte, 1:2 serial dilutions from 500 nM; PBS pH 7.4, 0.01% BSA, 0.002% Tween; 180 s association and dissociation; 1:1 fit; details: both partners purified
[2] = biological target: T2, human ICOS-L ectodomain (residues …); assay: BLI; His-tagged ICOS-L on Ni-NTA biosensors (0.8 nm), untagged ICOS (wild-type and mutants) as analyte, 1:2 serial dilutions from 125 nM; PBS pH 7.4, 0.01% BSA, 0.002% Tween; 1:1 fit; apparent constant (avidity of the ICOS homodimer); details: both partners purified
[3] = biological target: T3, human ICOS-L ectodomain (residues …); assay: crystal structure; ICOS (21-129)/ICOS-L (19-248)/VNAR complex, co-expressed and co-purified, 3.3 A; 0.1 M HEPES pH 7.0, 30% Jeffamine ED-2001; details: both partners purified
[4] = biological target: T4, human ICOS ectodomain N110Q (N110 …); assay: BLI
[5] = biological target: T5, human ICOS ectodomain (residues …); assay: BLI; ICOS-L immobilized
[6] = biological target: T5, human ICOS ectodomain (residues …); assay: BLI; ICOS-L immobilized
[7] = biological target: T4, human ICOS ectodomain N110Q (N110 …); assay: BLI; remark: listed apart in the source
[8] = biological target: B5; assay: BLI
[9] = biological target: B5; assay: BLI
[10] = biological target: T8, human ICOS-L ectodomain (residues 19-248), His-tagged, immobilised on Ni-NTA biosensors (human, UniProt O75144); assay: BLI; His-tagged ICOS or ICOS-L on Ni-NTA biosensors, Fabs as analytes (prezalumab 1:2 serial dilutions from 31 nM); PBS pH 7.4, 0.01% BSA, 0.002% Tween; 1:1 fit; details: both partners purified
T8 construct: also called ICOS ligand; CD275; source: HEK 293F, transiently transfected, purified from the supernatant (HisTrap Ni-NTA); not shown: His6, C-terminal, kept

[11] = biological target: T9, human ICOS-L ectodomain (residues 19-248), crystallised in complexes (human, UniProt O75144); assay: crystal structure; ICOS-L/prezalumab Fab/VNAR complex, co-expressed and co-purified, 3.15 A; 0.2 M di-ammonium tartrate, 20% PEG 3350; details: both partners purified
T9 construct: not shown: Venus (monomeric variant), C-terminal, cleaved; His6, C-terminal, cleaved

[12] = biological target: T6, human ICOS ectodomain N110Q, …; assay: BLI
[13] = biological target: T7, human ICOS ectodomain (residues …); assay: BLI
[14] = biological target: T6, human ICOS ectodomain N110Q, …; assay: BLI; remark: listed apart in the source
[15] = biological target: T7, human ICOS ectodomain (residues …); assay: BLI
[16] = biological target: T10, human ICOS ectodomain (residues 21-138), His-tagged, immobilised on Ni-NTA biosensors (human, UniProt Q9Y6W8); assay: BLI; His-tagged ICOS or ICOS-L on Ni-NTA biosensors, Fabs as analytes (prezalumab 1:2 serial dilutions from 31 nM); PBS pH 7.4, 0.01% BSA, 0.002% Tween; 1:1 fit; details: both partners purified
T10 construct: human ICOS ectodomain, UniProtKB Q9Y6W8, residues 21-138, followed by a TEV cleavage site; The His6 tag of the vector lies C-terminal of TEV site and Venus, so the His-tagged form used for loading is probably the undigested ICOS-TEV-Venus-His6 fusion; also called inducible T-cell co-stimulator; CD278; source: HEK 293F, transiently transfected, purified from the supernatant (HisTrap Ni-NTA); not …

[17] = biological target: T11, human ICOS C136A C137A N23Q (residues 21-138), crystallised with STIM003 Fab (human, UniProt Q9Y6W8, C136A | C137A | N23Q); assay: crystal structure; ICOS C136A C137A N23Q/STIM003 Fab complex, co-expressed and co-purified, then incubated 1:5 with anti-kappa VHH and gel filtered, 2.38 A; 0.2 M di-sodium hydrogen phosphate, 20% PEG 3350; details: both partners purified
T11 construct: human ICOS ectodomain, UniProtKB Q9Y6W8, residues 21-138 with C136A, C137A and N23Q; not shown: Venus (monomeric variant), C-terminal, cleaved; His6, C-terminal, cleaved
T11 sequence (Q9Y6W8 21-138 N23Q/C136A/C137A): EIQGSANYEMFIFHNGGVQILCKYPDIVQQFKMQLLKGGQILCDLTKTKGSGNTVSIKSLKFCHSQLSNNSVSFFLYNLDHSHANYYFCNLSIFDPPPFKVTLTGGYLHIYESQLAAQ

B1
Kd [1]: 722 nM
koff [1]: 0.16 s⁻¹

B2
Kd [2]: 10 nM

B3
fold improvement in binding affinity against WT ICOS [2]: 4.3 fold

B4
stoichiometry N [3]: 1

B5
Kd [4]: 0.7 nM
koff [5]: 0.0012 s⁻¹
Kd [6]: 3 nM
koff [7]: 0.00071 s⁻¹

B6
Kd [8]: 5.5 nM
koff [9]: 0.0045 s⁻¹
binding result [10]: binds

B7
binding result [11]: binds

B8
Kd [12]: 1.8 nM
Kd [13]: 2 nM
koff [14]: 0.001 s⁻¹
koff [15]: 0.00072 s⁻¹
binding result [16]: binds

B9
binding result [17]: binds
